From article PMC11227723

Target: Tropomyosin receptor kinase B (human TrkB), stably expressed in NIH-3T3 cells (human) (UniProt Q16620)
Chain of UniProt Q16620 (Q16620 32-822): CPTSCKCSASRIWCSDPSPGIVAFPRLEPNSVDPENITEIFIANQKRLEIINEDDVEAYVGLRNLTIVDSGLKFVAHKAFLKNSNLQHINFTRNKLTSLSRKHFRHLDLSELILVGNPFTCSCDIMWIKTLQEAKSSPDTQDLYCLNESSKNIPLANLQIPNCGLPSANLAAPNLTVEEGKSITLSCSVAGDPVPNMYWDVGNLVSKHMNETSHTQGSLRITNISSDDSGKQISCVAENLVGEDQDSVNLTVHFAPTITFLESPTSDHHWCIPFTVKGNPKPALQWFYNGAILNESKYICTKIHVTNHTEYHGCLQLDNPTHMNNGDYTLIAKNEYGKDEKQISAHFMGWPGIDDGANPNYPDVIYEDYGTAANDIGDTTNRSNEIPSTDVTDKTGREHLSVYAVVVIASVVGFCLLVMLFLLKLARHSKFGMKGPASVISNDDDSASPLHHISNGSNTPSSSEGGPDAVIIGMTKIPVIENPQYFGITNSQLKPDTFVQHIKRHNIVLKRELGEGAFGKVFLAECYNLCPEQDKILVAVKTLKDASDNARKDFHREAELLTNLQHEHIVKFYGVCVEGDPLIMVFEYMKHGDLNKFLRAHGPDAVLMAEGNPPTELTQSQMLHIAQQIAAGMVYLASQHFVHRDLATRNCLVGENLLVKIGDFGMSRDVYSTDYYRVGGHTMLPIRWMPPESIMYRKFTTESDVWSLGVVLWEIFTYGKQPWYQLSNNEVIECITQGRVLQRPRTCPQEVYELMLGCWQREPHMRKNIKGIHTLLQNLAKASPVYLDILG

Brain-derived neurotrophic factor (ligand)
TrkB phosphorylation (Western blot of phosphorylated and total TrkB) in NIH-3T3-TrkB cells after 20 min with BDNF (500 ng/mL), fold change against the untreated control: 1.87 fold change
